What was measured:
[1] = Stability in PBS and cathepsin B working buffer without enzymes (absorption/fluorescence spectra); format: physicochemical; conditions: 1 μM, PBS pH 7.4 or buffer pH 5.0 (25 mM NaOAc, 1 mM EDTA, 500 μM GSH), 0.1% Tween 80, 37 °C, 25 h
[2] = system: HeLa human cervical carcinoma cells; assay: Intracellular fluorescence by flow cytometry; format: cell-based; conditions: 2 μM 1 h + 6 h, SB-3CT (10 μM) and CA-074 Me (25 μM) 2 h pretreatment
Experimental: The cells were pretreated with SB-3CT (10 μM) and/or CA-074 Me (25 μM) or simply the neat medium for 2 h, followed by incubation with 1 (2 μM) for a further 1 h. After being rinsed with PBS, the cells were incubated in the medium for a further 6 h. As a negative control, the cells were simply incubated with 14 (2 μM) for 1 h, followed by post-incubation in the medium for 6 h. The fluorescence images of the cells under all these conditions were captured using a confocal laser scanning microscope. […] For the cells with pretreatment with both inhibitors, fluorescence due to 1 could hardly be seen. Similarly, for the cells being incubated with 14, the intracellular fluorescence was negligible. […] Again, for PMB 1, the fluorescence intensity was the highest for the cells without being pretreated with the two inhibitors. […] For HeLa cells being treated with 1, the fluorescence intensity of the native cells (i.e., the dual activated condition) was just 3.2-fold that of the cells under the dual inhibited condition. […]
Confocal Fluorescence Microscopic Studies […]
The cells were then rinsed with PBS twice before being examined with a Leica TCS SP8 high - speed confocal microscope equipped with a 638 nm laser. The fluorescence was monitored at 650−750 nm. The images were digitized and analyzed using a Leica Application Suite X […]

CCN(CC)c1ccc2nc3ccc(/N=N/c4ccc(N(C)CCCNC(=O)OC[C@@H]5[C@@H]6CCc7nnn(CC(=O)NCCCC[C@@H]8NC(=O)CNC(=O)[C@H](CCCCN)NC(=O)[C@H](CCCNC(=N)N)NC(=O)[C@H](C(C)C)NC(=O)CNC(=O)[C@H](CC(C)C)NC(=O)[C@@H]9CCCN9C(=O)[C@H](CCCCN)NC(=O)[C@@H](N)CSCc9cc(COc%10ccc(C%11=C%12C(C)=C(I)C(/C=C/c%13ccc(OCCOCCOCCOC)cc%13)=[N+]%12[B-](F)(F)n%12c(/C=C/c%13ccc(OCCOCCOCCOC)cc%13)c(I)c(C)c%12%11)cc%10)cc(c9)CSC[C@@H](C(N)=O)NC(=O)[C@H](CCCCN)NC(=O)[C@H](CCCCN)NC(=O)CNC(=O)[C@H](CC(C)C)NC(=O)[C@H](Cc9ccccc9)NC(=O)CNC(=O)[C@H](CCCCN)NC(=O)CNC8=O)c7CC[C@@H]65)cc4)cc3[n+](-c3ccccc3)c2c1 [compound 1]
stability in the absence of enzymes [1]: stable | intracellular fluorescence intensity, native cells relative to dual inhibited condition [2]: 3.2 fold
